Assay results as given in US7906477.

Tests used:
Abz-GKAFRRLY′ = system: T1, Abz-GKAFRRLY′; settings: for Relative hydrolysis rate: scale: relative
T1 sequence: GKAFRRLY

[1] = system: T2, ac-GKAFRR-L12ADT (SEQ ID NO:41); settings: for Relative hydrolysis rate: scale: relative
T2 sequence: GKAFRRX

GKAFR-AMC = system: T3, GKAFR-AMC
T3 sequence: GKAFR

[2] = system: T4, Y′GKAFRLK′-PEGA (SEQ ID NO:52)
T4 sequence: XGKAFRLX

[3] = system: T5, Y′GKAKPR-Dap-FK′ (SEQ ID NO:37)
T5 sequence: XGKAKPRXFX

[4] = system: T6, Y′GSKGPFKL-Dap-K′ (SEQ ID NO:46)
T6 sequence: XGSKGPFKLXX

[5] = system: T7, ac-GKAFRRLG (SEQ ID NO:43)
T7 sequence: GKAFRRLG

[6] = system: T8, Y′GSKGHFKL-Dap-F-K′ (SEQ ID NO:40)
T8 sequence: XGSKGHFKLXFX

[7] = system: T9, Y′GSKGHFKL-Dap-K′ (SEQ ID NO:45)
T9 sequence: XGSKGHFKLXX

[8] = system: T10, Y′GKAMRQ-Dap-FK′ (SEQ ID NO:39)
T10 sequence: XGKAMRQXFX

[9] = system: soluble non-arginine containing peptides
[10] = system: T11, Y′GKAFRR-Dap-FK′ (SEQ ID NO:38)
T11 sequence: XGKAFRRXFX

[11] = system: T12, Y′GKARAF-Dap-FK′ (SEQ ID NO:36)
T12 sequence: XGKARAFXFX

[12] = system: T13, Y′GKAFRRLGK′ (SEQ ID NO:21)
T13 sequence: XGKAFRRLGX

[13] = system: T14, Y′GSKGHFHL-Dap-K′ (SEQ ID NO:47)
T14 sequence: XGSKGHFHLXX

Sequence of Plasmin (P00747 20-580): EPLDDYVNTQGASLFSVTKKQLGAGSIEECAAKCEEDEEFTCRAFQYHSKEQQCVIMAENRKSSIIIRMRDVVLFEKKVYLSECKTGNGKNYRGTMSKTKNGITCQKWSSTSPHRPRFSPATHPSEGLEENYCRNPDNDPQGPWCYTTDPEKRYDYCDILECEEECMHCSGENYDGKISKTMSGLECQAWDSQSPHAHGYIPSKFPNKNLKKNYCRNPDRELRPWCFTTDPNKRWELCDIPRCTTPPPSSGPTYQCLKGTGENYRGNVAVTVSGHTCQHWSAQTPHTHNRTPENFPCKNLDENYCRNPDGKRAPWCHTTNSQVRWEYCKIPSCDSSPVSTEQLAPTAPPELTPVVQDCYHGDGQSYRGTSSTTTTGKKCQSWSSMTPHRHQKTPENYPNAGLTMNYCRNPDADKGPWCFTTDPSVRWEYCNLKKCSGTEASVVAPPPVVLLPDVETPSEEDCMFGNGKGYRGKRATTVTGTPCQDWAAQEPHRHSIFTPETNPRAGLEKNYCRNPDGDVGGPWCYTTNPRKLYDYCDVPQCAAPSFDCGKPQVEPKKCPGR
Sequence of Plasmin (P00747 581-810): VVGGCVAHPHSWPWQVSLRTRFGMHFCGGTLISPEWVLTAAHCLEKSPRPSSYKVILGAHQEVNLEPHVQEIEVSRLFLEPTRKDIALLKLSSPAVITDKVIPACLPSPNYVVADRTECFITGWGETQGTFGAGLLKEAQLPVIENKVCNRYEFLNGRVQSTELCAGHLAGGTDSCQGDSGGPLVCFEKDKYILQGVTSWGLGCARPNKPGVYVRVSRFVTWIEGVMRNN

Question: What does the source list for Cathepsin B?
Answer: hydrolysis by protease (Abz-GKAFRRLY′): No appreciable hydrolysis of either substrate was observed following incubation with Cathepsin D or Cathepsin B; Relative hydrolysis rate (Abz-GKAFRRLY′): 1; hydrolysis by protease [1]: No appreciable hydrolysis of either substrate was observed following incubation with Cathepsin D or Cathepsin B; Relative hydrolysis rate [1]: 1

Question: Which results are given for Cathepsin D?
Answer: hydrolysis by protease (Abz-GKAFRRLY′): No appreciable hydrolysis of either substrate was observed following incubation with Cathepsin D or Cathepsin B; Relative hydrolysis rate (Abz-GKAFRRLY′): 1; hydrolysis by protease [1]: No appreciable hydrolysis of either substrate was observed following incubation with Cathepsin D or Cathepsin B; Relative hydrolysis rate [1]: 1

Question: Plasmin was tested. Which “rate of hydrolysis relative to hK2” value (Abz-GKAFRRLY′) did it give?
Answer: Its value is “Plasmin had a more than 10-fold slower rate of hydrolysis of the peptide substrate than hK2”.

Question: What about the Relative hydrolysis rate (Abz-GKAFRRLY′) of the same substance?
Answer: The Relative hydrolysis rate was 36.

Question: With Urokinase as the substance, how does the hydrolysis by protease (Abz-GKAFRRLY′) read?
Answer: Its hydrolysis by protease is “Urokinase showed low activity on the fluorescence quenched peptide substrate”.

Question: What about the Relative hydrolysis rate (Abz-GKAFRRLY′) of the same substance?
Answer: Its Relative hydrolysis rate is 17.

Question: What about the Relative hydrolysis rate [1] of the same substance?
Answer: Its Relative hydrolysis rate is 1.

Question: For “human glandular kallikrein 2 (hK2), enzymatically active”, which Km (GKAFR-AMC) is on record?
Answer: Its Km is “Km 146 µM”.

Question: And the kcat (GKAFR-AMC)?
Answer: Its kcat is “kcat 0.13 sec^-1”.

Question: What about the kcat/Km (GKAFR-AMC) of the same substance?
Answer: The kcat/Km was “kcat/Km 895 sec^-1 M^-1”.

Question: And the Relative hydrolysis rate (Abz-GKAFRRLY′)?
Answer: Its Relative hydrolysis rate is 353.

Question: What about the “incubation time until fluorescent beads (on-bead digestion, 4 µg/ml hK2)” value [2] of the same substance?
Answer: Its value is “digested to yield fluorescent beads after 10-12 hours of incubation with 4 µg/ml hK2”.

Question: What about the “on-bead digestion with hK2 (fluorescence)” value (shortened to “on-bead digestion with hK2”) [3] of the same substance?
Answer: The value was “reproduced fluorescence when these peptides were digested on-bead with hK2”.

Question: What about the “time to digestion of the same amount (more than 50%) of peptide” value (from here on “time … (more than 50%) of peptide”) [3] of the same substance?
Answer: Its value is “For the other peptides, digestion of the same amount of peptide took 19-29 minutes”.

Question: And the “digestion by hK2 in solution (fluorescence-quenched peptide)” value (from here on “digestion by hK2 in solution”) [4]?
Answer: Its value is “none of these three arginine free peptides were digested by hK2, even after prolonged incubation”.

Question: And the “hydrolysis by hK2 (HPLC)” value [5]?
Answer: The value was “this peptide was rapidly hydrolyzed by hK2”.

Question: What about the “hK2 mediated hydrolysis (fluorescence, 250 µM substrate, 8 µg/ml hK2)” value [6] of the same substance?
Answer: Its value is “did not show any hydrolysis”.

Question: And the “digestion by hK2 in solution” value [7]?
Answer: The value was “none of these three arginine free peptides were digested by hK2, even after prolonged incubation”.

Question: And the “on-bead digestion with hK2” value [8]?
Answer: Its value is “reproduced fluorescence when these peptides were digested on-bead with hK2”.

Question: What about the “time … (more than 50%) of peptide” value [8] of the same substance?
Answer: Its value is “For the other peptides, digestion of the same amount of peptide took 19-29 minutes”.

Question: And the “hydrolysis by hK2 (4 µg/ml), HPLC” value [1]?
Answer: Its value is “the hK2 prodrug is rapidly cleaved by hK2”.

Question: What about the “percent of starting prodrug hydrolyzed after 1 hour (4 µg/ml hK2, HPLC)” value [1] of the same substance?
Answer: Its value is “after 1 hour, more than 80% of the starting prodrug was hydrolyzed”.

Question: And the “time to 50% hydrolysis (4 µg/ml hK2, HPLC)” value [1]?
Answer: Its value is “In 25 min, 50% was hydrolyzed”.

Question: What about the Relative hydrolysis rate [1] of the same substance?
Answer: The Relative hydrolysis rate was 125.

Question: What about the “hydrolysis by hK2 in solution” value [9] of the same substance?
Answer: Its value is “the soluble non-arginine containing peptides were not hydrolyzed by hK2”.

Question: What about the “Michaelis-Menten constant (Km)” value [10] of the same substance?
Answer: Its value is “The Michaelis-Menten constant (Km) was determined at 26.5 µM”.

Question: What about the “hK2 mediated hydrolysis (fluorescence, 250 µM substrate, 8 µg/ml hK2)” value [10] of the same substance?
Answer: The value was “by far exceeded all other substrates”.

Question: What about the kcat [10] of the same substance?
Answer: Its kcat is “the kcat at 1.09 sec^-1”.

Question: What about the kcat/Km ratio [10] of the same substance?
Answer: Its kcat/Km ratio is “the kcat/Km ratio was 41,132 sec^-1 M^-1”.

Question: What about the “on-bead digestion with hK2” value [10] of the same substance?
Answer: Its value is “reproduced fluorescence when these peptides were digested on-bead with hK2”.

Question: And the “time to maximum digestion (70-75%)” value [10]?
Answer: The value was “a value that was reached with Y′GKAFRR-Dap-F-K′ (SEQ ID NO:38) in less than 15 minutes”.

Question: What about the “time to more than 50% digestion (500 µM peptide, 4 µg/ml hK2)” value [10] of the same substance?
Answer: The value was “In less than five minutes, more than 50% of the peptide was digested”.

Question: What about the “on-bead digestion with hK2” value [11] of the same substance?
Answer: Its value is “reproduced fluorescence when these peptides were digested on-bead with hK2”.

Question: And the “time … (more than 50%) of peptide” value [11]?
Answer: The value was “For the other peptides, digestion of the same amount of peptide took 19-29 minutes”.

Question: And the “hK2 hydrolysis rate (fluorescence)” value [12]?
Answer: The value was “Substitution of Dap-F with Leu-Gly resulted in only a modest decrease in hydrolysis rate”.

Question: What about the “digestion by hK2 in solution” value [13] of the same substance?
Answer: The value was “none of these three arginine free peptides were digested by hK2, even after prolonged incubation”.
